From IntAct's records for PubMed 29039417 come the findings set out here.

First the molecules themselves.
B1: Protein PTHB1 (Homo sapiens), Q3SYG4 (parent)
chain: MSLFKARDWWSTILGDKEEFDQGCLCLANVDNSGNGQDKIIVGSFMGYLRIFSPHPAKTGDGAQAEDLLLEVDLRDPVLQVEVGKFVSGTEMLHLAVLHSRKLCVYSVSGTLGNVEHGNQCQMKLMYEHNLQRTACNMTYGSFGGVKGRDLICIQSMDGMLMVFEQESYAFGRFLPGFLLPGPLAYSSRTDSFLTVSSCQQVESYKYQVLAFATDADKRQETEQQKLGSGKRLVVDWTLNIGEQALDICIVSFNQSASSVFVLGERNFFCLKDNGQIRFMKKLDWSPSCFLPYCSVSEGTINTLIGNHNNMLHIYQDVTLKWATQLPHIPVAVRVGCLHDLKGVIVTLSDDGHLQCSYLGTDPSLFQAPNVQSRELNYDELDVEMKELQKIIKDVNKSQGVWPMTEREDDLNVSVVVSPNFDSVSQATDVEVGTDLVPSVTVKVTLQNRVILQKAKLSVYVQPPLELTCDQFTFEFMTPDLTRTVSFSVYLKRSYTPSELEGNAVVSYSRPTDRNPDGIPRVIQCKFRLPLKLICLPGQPSKTASHKITIDTNKSPVSLLSLFPGFASQSDDDQVNVMGFHFLGGARITVLASKTSQRYRIQSEQFEDLWLITNELILRLQEYFEKQGVKDFACSFSGSIPLQEYFELIDHHFELRINGEKLEELLSERAVQFRAIQRRLLARFKDKTPAPLQHLDTLLDGTYKQVIALADAVEENQGNLFQSFTRLKSATHLVILLIALWQKLSADQVAILEAAFLPLQEDTQELGWEETVDAAISHLLKTCLSKSSKEQALNLNSQLNIPKDTSQLKKHITLLCDRLSKGGRLCLSTDAAAPQTMVMPGGCTTIPESDLEERSVEQDSTELFTNHRHLTAETPRPEVSPLQGVSE
partner: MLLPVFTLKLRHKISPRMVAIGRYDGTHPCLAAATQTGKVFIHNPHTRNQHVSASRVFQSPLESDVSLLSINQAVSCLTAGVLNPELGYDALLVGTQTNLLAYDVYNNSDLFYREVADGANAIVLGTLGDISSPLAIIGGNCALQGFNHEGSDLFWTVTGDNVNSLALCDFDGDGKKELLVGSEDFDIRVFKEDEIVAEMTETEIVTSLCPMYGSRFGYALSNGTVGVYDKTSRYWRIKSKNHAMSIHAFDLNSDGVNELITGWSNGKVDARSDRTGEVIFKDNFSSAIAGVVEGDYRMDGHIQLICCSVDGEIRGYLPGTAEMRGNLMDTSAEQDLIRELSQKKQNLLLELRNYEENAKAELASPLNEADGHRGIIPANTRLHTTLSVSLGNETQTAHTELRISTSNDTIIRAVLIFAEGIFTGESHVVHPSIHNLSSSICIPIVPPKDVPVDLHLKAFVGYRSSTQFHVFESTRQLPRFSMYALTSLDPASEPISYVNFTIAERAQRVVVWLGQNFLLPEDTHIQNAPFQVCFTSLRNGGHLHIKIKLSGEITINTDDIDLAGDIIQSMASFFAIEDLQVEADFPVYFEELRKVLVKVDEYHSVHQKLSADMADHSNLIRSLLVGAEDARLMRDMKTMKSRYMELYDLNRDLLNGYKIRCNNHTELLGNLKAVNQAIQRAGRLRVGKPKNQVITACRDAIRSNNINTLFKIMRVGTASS

In the assay the parent is B1. The note with it: with bbs2_human BBS2, Q9BXC9.
In the case of P758A, the “effect of a mutation on the interaction” value was “with no effect”.
For the variant P758K, the “effect of a mutation on the interaction” value was “with no effect”.
In the case of P758E it was “with no effect”.
On to E753K, for which the “effect of a mutation on the interaction” value is given as “with no effect”.
The same measure for E753A: “with no effect”; for L757A: “with no effect”; for L757E: “with no effect”.
In the case of L757K it was “with no effect”.
In the case of T771A it was “with no effect”; in that of T771E, “with no effect”.
T771K: the “effect of a mutation on the interaction” value was “with no effect”.
In the case of L752E it was “with no effect”; in that of L752K, “with no effect”.
On to L752A, for which the “effect of a mutation on the interaction” value is listed as “with no effect”.
In the case of G767K it was “with no effect”; in that of G767E, “with no effect”.
The same measure for G767A: “with no effect”.
The same measure for A755E: “with no effect”.
Consider A755K, for which the “effect of a mutation on the interaction” value is on record as “with no effect”.
As to D747K, the “effect of a mutation on the interaction” value is “with no effect”.
The same measure for D747A: “with no effect”; for D747E: “with no effect”; for I751E: “with no effect”.
As for I751A, the “effect of a mutation on the interaction” value is reported as “with no effect”.
In the case of I751K it was “with no effect”; in that of D762K, “with no effect”.
In the case of D762A it was “with no effect”; in that of D762E, “with no effect”.
In the case of F756K it was “with no effect”; in that of F756E, “with no effect”; in that of F756A, “with no effect”.
Take A746K: the “effect of a mutation on the interaction” value is listed as “with no effect”.
The same measure for A746E: “with no effect”.
The same measure for A754K: “with no effect”; for A754E: “with no effect”; for K743A: “with no effect”.
In the case of K743E it was “with no effect”.
Regarding E770K, the “effect of a mutation on the interaction” value is listed as “with no effect”.
The same measure for E770A: “with no effect”.
The same measure for S745E: “with no effect”.
In the case of S745A it was “with no effect”; in that of S745K, “with no effect”.
Take L766A: the “effect of a mutation on the interaction” value is recorded as “with no effect”.
The same measure for L766K: “with no effect”; for L766E: “with no effect”.
In the case of W741K it was “with no effect”; in that of W741R, “disrupting interaction strength”.
In the case of W741S it was “disrupting interaction strength”.
Turning to W741L, the “effect of a mutation on the interaction” value is “disrupting interaction strength”.
In the case of E765A it was “with no effect”.
The same measure for E765K: “with no effect”; for L759K: “with no effect”; for L759A: “with no effect”.
In the case of L759E it was “with no effect”; in that of V772A, “disrupting interaction strength”.
In the case of Q748L, the “effect of a mutation on the interaction” value is “disrupting interaction strength”.
The same measure for Q748E: “with no effect”.
In the case of Q748A it was “with no effect”; in that of Q748K, “disrupting interaction strength”.
In the case of Q764E it was “with no effect”; in that of Q764K, “with no effect”; in that of Q764A, “with no effect”.
In the case of V749K, the “effect of a mutation on the interaction” value is “with no effect”.
The same measure for V749E: “with no effect”; for V749A: “with no effect”; for W768A: “with no effect”.
Take W768K: the “effect of a mutation on the interaction” value is on record as “with no effect”.
W768E: the “effect of a mutation on the interaction” value is on record as “with no effect”.
In the case of Q742A it was “with no effect”.
In the case of Q742S it was “disrupting interaction strength”; in that of Q742L, “disrupting interaction strength”.
Take Q742K: the “effect of a mutation on the interaction” value was “with no effect”.
As for Q742E, the “effect of a mutation on the interaction” value is recorded as “with no effect”.
In the case of A750E it was “with no effect”; in that of A750K, “with no effect”; in that of L744F, “disrupting interaction strength”.
Regarding L744K, the “effect of a mutation on the interaction” value is “with no effect”.
The same measure for L744E: “with no effect”; for L744A: “with no effect”.
For E769K, the “effect of a mutation on the interaction” value is on record as “with no effect”.
In the case of E769A it was “with no effect”; in that of Q760E, “with no effect”.
The same measure for Q760A: “with no effect”; for Q760K: “with no effect”; for E761K: “with no effect”.
The same measure for E761A: “with no effect”.
As to T763A, the “effect of a mutation on the interaction” value is “with no effect”.
The same measure for T763E: “with no effect”; for T763K: “with no effect”.
